Measured values as given in patent US20150361183A1 (IMPERIAL INNOVATIONS, published 2015).
Each block holds one binder with its values, some of them ahead of it.

How the values were obtained:
[1] = target: the molecule itself; assay: size exclusion chromatography
Excerpt: FIG. 3(a) Generation of a CFHR5 protein lacking critical amino acids within the dimerisation motif. Monomeric CFHR5 (CFHR5^{dimer mutant}) was generated by mutating the three stabilizing amino acids (Tyr34Ser, Ser36 Tyr, Tyr39Glu) within the dimerisation motif to the corresponding amino acids within CFH. FIG. 3(b) Analysis of recombinant CFHR5 and CFHR5^{dimer mutant} using SDS PAGE gel electrophoresis. Both the wild type and dimer mutants were purified to single homogenous species as visualized by denaturing electrophoresis. FIG. 3(c) Analysis of recombinant CFHR5 and CFHR5^{dimer mutant} using size exclusion chromatography. Size exclusion chromatography was performed on a Superdex200 10/30 column (GE Healthcare) equilibrated in 50 mM Tris.HCl, pH 7.5, 150 mM NaCl at 0.4 ml/min. The column was followed in-line by an Optilab-Rex refractive index monitor (Wyatt Technologies). The CFHR5 dimer elutes early from the column (blue trace) whilst the monomeric CFHR5^{dimer mutant} protein elutes at a larger column volume (red trace). FIG. 3(d) Interaction of CFHR5 and CFHR5^{dimer mutant} with renal-bound mouse C3 in vivo.

C3b [2] = target: T1, C3b (UniProt P01024 749-1663; P01024 23-667); assay: SPR steady state, thioester-coupled (clustered) C3b against amine-coupled C3b
T1 construct: C3b is a two-chain fragment of C3; Used coated on ELISA wells, amine-coupled or thioester-coupled on SPR chips, or as the SPR analyte; also called complement C3b; amine-coupled C3b
Procedure: FIG. 9(a) Binding of CFHR5 and CFH to low levels of C3b coupled through amine groups (no clustering of C3b). CFH (from 4 μM) or CFHR5 (from 6.6 μM) were flowed across immobilized C3b (400 RU) at different concentrations. Affinity was calculated by steady state analysis. Analysis assumes a 1:1 binding interaction and for CFHR5 calculations used molarity of binding sites. FIG. 9(b) Binding to C3b coupled through the thiolester. C3b (150RU) was amine-coupled to a CM5 Biacore chip and used as a nidus for convertase formation. Further C3b was deposited on the chip surface by flowing fB and fD to form C3bBb followed by C3 as convertase substrate. […] CFH (from 4 μM) and CFHR5 (from 1.35 μM) were flowed across the surface and binding was analysed at steady state. Binding of CFH was very heterogeneous, likely due to crosslinking between multiple C3b-binding sites on fH and clusters of deposited C3b molecules. Affinity could not be calculated under these conditions. […] Data were calculated using the following values: CFH, mass 155 kDa, extinction coefficient 1.95 cm-1 (mg/mL)-1; CFHR5, mass 65 kDa, extinction coefficient 1.55 cm-1 (mg/mL)-1;
All data in FIGS. 9-11 were gathered using a Biacore T100 (GE Healthcare). […] For kinetic studies, samples were injected using the KINJECT command, in HBS/P (10 mM HEPES pH7.4, 150 mM NaCl, 0.05% surfactant-P20) flowed at 30 μl/min and analysed at 25° C. […]

C3b [3] = target: T1, C3b; assay: cell-based or functional assay
X-ray crystal structure = target: the molecule itself; assay: X-ray crystal structure
Procedure: Crystals were grown using the sitting drop vapour diffusion method from 0.2 μL, protein+0.2 μL mother liquor drops at […] using protein stocks at A280=3.3 and 7.8 for CFHR112 and CFHR234 respectively. CFHR112 crystals grew from a mother liquor containing 36% PEG 2000 MME, 0.1M MES pH 6.5. CFHR234 crystals grew in 30% PEG 8000, 0.2M ammonium sulphate. Crystals were plunge cooled in liquid nitrogen following cryoprotection in 20% and 15% ethylene glycol for CFHR112 and CFHR234, respectively. Data were collected at both the ESRF and DIAMOND using the rotation method with oscillation ranges of 0.150 or 0.20 at 120 K. CFHR112 data were collected at beamline ID29 (ESRF, Grenoble) with λ=1.7105 Å. CFHR234 data were collected at beamline I04-1 (DIAMOND, UK) with λ=0.9173 Å. Data were integrated and scaled using XIA2 19 with the −3dii option to enforce usage of XDS 20 for integration and SCALA for scaling 21.

C5 = target: T2, C5 (UniProt P01031 19-673; P01031 678-1676, limits assumed); assay: SPR, CFHR112 immobilised (750 RU), C5 flowed
T2 construct: also called complement C5

[4] = target: T3, CFHR1 (complement factor H-related protein 1), purified from serum (human, UniProt Q03591 19-330); assay: serum immunoprecipitation with anti-CFHR2, western blot with MBC125
T3 construct: Native protein purified from human serum or plasma and described as a native dimer; In serum it also forms heterodimers with CFHR2 and CFHR5; also called serum-derived CFHR1; serum-purified CFHR1
T3 sequence: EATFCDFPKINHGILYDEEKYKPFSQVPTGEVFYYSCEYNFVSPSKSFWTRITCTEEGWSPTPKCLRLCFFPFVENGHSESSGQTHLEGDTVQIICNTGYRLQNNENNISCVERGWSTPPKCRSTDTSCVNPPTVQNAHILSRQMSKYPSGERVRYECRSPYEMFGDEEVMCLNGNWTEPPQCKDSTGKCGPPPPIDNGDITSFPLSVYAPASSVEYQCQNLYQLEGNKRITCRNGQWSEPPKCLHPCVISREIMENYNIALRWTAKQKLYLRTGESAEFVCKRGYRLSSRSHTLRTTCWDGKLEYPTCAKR
Excerpt: Serum was immunoprecipitated using a specific anti-CFHR2 antibody (MBC22) and western blot analysis of the immunoprecipitated material with anti-CFHR1/2/5 antibody (MBC125) performed. […] Lane 2 and 4 represent control sera in which no anti-CFHR2 antibody was used. The detection of CFHR2-CFHR5 heterodimers was not possible due to non-specific bands in the CFHR5 region. […] Serum was immunoprecipitated using an anti-CFHR5 antibody and western blot analysis of the immunoprecipitated material with anti-CFHR1/2/5 antibody performed. […] Lane 2 and 4 represent control sera in which no anti-CFHR5 antibody was used. The detection of CFHR2-CFHR5 heterodimers was not possible due to non-specific bands in the CFHR2 region. FIG. 2(d) ELISA assay to detect CFHR2-CFHR5 heterodimers in vivo. Using an anti-CFHR5 capture antibody and an anti-CFHR2 detection antibody, positive signal was demonstrable in two individuals homozygous for the ΔCFHR3-1 deletion polymorphism. A much weaker signal was detectable in individuals without this deletion.
Detection of heterodimers CFHR1-CFHR2 and CFHR1-CFHR5 were identified by immunoprecipitation. […]

iC3b = target: T4, iC3b (UniProt P01024 23-667; P01024 749-1303; P01024 1321-1663); assay: SPR steady state, iC3b on chip; reference CFHR5
T4 construct: also called thioester-coupled iC3b
T4 sequence (P01024 23-667, chain 1 of 3): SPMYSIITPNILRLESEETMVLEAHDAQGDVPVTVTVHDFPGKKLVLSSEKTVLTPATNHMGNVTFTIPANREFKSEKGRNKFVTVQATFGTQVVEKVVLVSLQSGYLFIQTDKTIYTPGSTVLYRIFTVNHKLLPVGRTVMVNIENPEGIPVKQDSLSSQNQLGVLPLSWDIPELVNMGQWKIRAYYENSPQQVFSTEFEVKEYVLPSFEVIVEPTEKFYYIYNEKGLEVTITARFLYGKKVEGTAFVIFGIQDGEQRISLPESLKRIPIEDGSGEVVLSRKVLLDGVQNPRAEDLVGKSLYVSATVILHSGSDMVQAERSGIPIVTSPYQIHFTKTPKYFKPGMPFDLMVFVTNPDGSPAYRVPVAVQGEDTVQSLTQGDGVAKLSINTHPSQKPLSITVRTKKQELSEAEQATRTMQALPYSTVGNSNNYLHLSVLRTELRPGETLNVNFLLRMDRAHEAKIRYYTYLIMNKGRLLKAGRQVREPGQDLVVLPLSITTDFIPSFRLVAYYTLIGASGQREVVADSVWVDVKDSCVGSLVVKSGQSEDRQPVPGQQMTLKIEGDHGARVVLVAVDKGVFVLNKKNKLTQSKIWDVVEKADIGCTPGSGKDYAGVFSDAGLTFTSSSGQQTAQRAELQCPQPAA
T4 sequence (P01024 749-1303, chain 2 of 3): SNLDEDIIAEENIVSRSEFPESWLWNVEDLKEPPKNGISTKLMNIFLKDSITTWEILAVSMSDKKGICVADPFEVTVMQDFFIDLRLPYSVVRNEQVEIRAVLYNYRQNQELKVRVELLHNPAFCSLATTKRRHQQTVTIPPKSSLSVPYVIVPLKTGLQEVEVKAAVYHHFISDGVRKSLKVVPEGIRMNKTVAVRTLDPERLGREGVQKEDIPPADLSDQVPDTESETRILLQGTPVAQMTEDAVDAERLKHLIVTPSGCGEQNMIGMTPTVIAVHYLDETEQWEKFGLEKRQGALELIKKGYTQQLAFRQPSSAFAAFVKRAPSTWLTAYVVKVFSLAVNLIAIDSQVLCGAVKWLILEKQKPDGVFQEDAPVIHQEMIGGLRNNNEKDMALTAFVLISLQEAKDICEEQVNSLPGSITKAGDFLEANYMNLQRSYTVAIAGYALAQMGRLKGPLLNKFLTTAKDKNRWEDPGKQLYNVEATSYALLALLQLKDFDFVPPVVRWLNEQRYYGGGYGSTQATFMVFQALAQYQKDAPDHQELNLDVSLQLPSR
T4 sequence (P01024 1321-1663, chain 3 of 3): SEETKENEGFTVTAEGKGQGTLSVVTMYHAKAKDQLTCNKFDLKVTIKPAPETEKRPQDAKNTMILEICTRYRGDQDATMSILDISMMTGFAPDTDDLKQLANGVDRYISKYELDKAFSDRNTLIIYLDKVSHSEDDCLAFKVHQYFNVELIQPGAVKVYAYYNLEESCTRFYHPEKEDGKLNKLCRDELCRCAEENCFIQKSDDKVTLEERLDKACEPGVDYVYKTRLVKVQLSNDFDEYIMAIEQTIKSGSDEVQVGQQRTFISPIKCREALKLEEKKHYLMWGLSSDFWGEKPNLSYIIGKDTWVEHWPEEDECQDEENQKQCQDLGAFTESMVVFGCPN

T1 sequence (P01024 749-1663 limits assumed, chain 1 of 2): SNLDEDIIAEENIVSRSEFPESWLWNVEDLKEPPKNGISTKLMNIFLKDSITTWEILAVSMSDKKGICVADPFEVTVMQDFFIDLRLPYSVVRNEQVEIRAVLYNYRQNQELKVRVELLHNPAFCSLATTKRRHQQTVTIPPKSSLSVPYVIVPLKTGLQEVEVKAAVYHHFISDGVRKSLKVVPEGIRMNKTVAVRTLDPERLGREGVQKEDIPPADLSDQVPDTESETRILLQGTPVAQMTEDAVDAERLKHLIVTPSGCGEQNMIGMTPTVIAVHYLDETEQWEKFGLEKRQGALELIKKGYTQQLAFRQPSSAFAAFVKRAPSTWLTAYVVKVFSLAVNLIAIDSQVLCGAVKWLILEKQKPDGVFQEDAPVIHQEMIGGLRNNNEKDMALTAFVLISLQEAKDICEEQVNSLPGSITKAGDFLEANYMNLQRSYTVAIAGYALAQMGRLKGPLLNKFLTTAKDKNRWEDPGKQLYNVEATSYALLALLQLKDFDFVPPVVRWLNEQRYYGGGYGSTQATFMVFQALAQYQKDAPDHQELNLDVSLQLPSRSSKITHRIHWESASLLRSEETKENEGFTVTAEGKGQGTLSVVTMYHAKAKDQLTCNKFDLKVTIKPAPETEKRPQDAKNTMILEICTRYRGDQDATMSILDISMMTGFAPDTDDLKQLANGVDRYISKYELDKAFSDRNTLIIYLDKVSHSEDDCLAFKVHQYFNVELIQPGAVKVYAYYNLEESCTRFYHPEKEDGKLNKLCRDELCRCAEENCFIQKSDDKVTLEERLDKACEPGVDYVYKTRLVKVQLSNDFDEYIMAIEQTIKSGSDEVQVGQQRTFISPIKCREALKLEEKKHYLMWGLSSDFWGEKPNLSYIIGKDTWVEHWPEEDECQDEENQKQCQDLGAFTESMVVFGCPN
T1 sequence (P01024 23-667 limits assumed, chain 2 of 2): as the sequence (P01024 23-667, chain 1 of 3) above
T2 sequence (P01031 19-673 limits assumed, chain 1 of 2): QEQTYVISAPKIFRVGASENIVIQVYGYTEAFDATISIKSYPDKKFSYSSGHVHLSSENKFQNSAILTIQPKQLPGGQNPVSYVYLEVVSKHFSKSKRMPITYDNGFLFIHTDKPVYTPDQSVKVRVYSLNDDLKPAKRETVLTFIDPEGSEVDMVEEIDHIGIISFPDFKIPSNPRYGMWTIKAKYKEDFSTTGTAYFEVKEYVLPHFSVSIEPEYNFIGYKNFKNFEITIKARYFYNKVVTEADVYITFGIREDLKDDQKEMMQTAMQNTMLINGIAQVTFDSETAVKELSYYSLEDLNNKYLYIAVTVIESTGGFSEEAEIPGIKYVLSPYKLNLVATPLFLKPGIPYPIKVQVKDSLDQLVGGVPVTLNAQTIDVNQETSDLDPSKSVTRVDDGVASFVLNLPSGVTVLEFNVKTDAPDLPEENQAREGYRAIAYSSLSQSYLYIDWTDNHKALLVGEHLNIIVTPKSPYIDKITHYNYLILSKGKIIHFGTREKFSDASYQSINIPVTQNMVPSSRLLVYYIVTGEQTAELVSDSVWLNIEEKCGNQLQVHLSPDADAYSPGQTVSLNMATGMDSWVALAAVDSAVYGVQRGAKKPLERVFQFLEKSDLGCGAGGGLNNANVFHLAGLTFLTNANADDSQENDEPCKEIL
T2 sequence (P01031 678-1676 limits assumed, chain 2 of 2): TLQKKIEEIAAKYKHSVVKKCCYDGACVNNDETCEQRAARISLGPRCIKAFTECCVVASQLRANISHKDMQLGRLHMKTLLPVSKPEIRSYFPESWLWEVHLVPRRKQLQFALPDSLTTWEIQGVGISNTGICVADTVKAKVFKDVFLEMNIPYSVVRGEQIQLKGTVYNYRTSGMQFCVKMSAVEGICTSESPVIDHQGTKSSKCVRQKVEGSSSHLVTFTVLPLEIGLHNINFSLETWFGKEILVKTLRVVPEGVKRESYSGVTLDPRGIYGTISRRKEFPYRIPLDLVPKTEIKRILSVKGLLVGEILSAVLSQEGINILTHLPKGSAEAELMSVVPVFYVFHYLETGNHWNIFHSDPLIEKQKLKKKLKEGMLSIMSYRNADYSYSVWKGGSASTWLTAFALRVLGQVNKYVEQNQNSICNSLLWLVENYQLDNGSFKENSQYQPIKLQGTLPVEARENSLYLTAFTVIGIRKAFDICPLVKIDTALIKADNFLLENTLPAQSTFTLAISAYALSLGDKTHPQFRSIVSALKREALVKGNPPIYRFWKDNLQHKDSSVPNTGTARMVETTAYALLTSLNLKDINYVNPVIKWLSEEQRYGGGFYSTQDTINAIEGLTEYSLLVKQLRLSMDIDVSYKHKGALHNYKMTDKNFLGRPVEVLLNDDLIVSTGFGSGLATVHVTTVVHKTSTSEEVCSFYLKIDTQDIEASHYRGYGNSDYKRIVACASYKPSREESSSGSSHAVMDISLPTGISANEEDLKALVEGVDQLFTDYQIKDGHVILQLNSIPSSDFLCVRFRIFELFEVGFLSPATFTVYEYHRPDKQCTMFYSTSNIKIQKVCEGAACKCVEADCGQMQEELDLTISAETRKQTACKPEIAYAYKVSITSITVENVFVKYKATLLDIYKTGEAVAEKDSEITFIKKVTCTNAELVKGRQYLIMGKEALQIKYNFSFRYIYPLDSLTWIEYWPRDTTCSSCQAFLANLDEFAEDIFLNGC

- fold tighter binding to thioester-coupled C3b than to amine-coupled C3b (C3b [2]): 10 fold
B1: CFHR5 (complement factor H-related protein 5), wild type (other)
chain: EGTLCDFPKIHHGFLYDEEDYNPFSQVPTGEVFYYSCEYNFVSPSKSFWTRITCTEEGWSPTPKCLRMCSFPFVKNGHSESSGLIHLEGDTVQIICNTGYSLQNNEKNISCVERGWSTPPICSFTKGECHVPILEANVDAQPKKESYKVGDVLKFSCRKNLIRVGSDSVQCYQFGWSPNFPTCKGQVRSCGPPPQLSNGEVKEIRKEEYGHNEVVEYDCNPNFIINGPKKIQCVDGEWTTLPTCVEQVKTCGYIPELEYGYVQPSVPPYQHGVSVEVNCRNEYAMIGNNMITCINGIWTELPMCVATHQLKRCKIAGVNIKTLLKLSGKEFNHNSRIRYRCSDIFRYRHSVCINGKWNPEVDCTEKREQFCPPPPQIPNAQNMTTTVNYQDGEKVAVLCKENYLLPEAKEIVCKDGRWQSLPRCVESTAYCGPPPSINNGDTTSFPLSVYPPGSTVTYRCQSFYKLQGSVTVTCRNKQWSEPPRCLDPCVVSEENMNKNNIQLKWRNDGKLYAKTGDAVEFQCKFPHKAMISSPPFRAICQEGKFEYPICE
notes: Recombinant full-length protein from HEK293 cells, a dimer by size exclusion; The same id is used for native serum CFHR5 in the heterodimer experiments; also called recombinant CFHR5; wild-type CFHR5
- binding result [1]: binds
- IC50, dose-dependent increase of lysis in the CFH-dependent alternative pathway haemolytic assay (guinea-pig erythrocytes, 20% normal human serum plus CFH) (C3b [3]): 150 nM

- binding result (C5): no binding
B2: CFHR112 (recombinant first two SCR domains of CFHR1) (other)
chain: EATFCDFPKINHGILYDEEKYKPFSQVPTGEVFYYSCEYNFVSPSKSFWTRITCTEEGWSPTPKCLRLCFFPFVENGHSESSGQTHLEGDTVQIICNTGYRLQNNENNISCVERGWSTPPKCRST
notes: Head-to-tail homodimer in crystal and in solution; also called CFHR1,2; recombinant CFHR1 domains 1 and 2
- binding result (X-ray crystal structure): binds

- binding result [4]: binds
B3: CFHR2 (complement factor H-related protein 2), native in serum (other)
chain: EAMFCDFPKINHGILYDEEKYKPFSQVPTGEVFYYSCEYNFVSPSKSFWTRITCAEEGWSPTPKCLRLCFFPFVENGHSESSGQTHLEGDTVQIICNTGYRLQNNENNISCVERGWSTPPKCRSTISAEKCGPPPPIDNGDITSFLLSVYAPGSSVEYQCQNLYQLEGNNQITCRNGQWSEPPKCLDPCVISQEIMEKYNIKLKWTNQQKLYSRTGDIVEFVCKSGYHPTKSHSFRAMCQNGKLVYPSCEEK
notes: Native serum protein

- fold weaker binding than CFHR5 (iC3b): 10 fold
B4: Complement factor H (CFH) (other, UniProt P08603 19-1231, looked up)
chain: EDCNELPPRRNTEILTGSWSDQTYPEGTQAIYKCRPGYRSLGNVIMVCRKGEWVALNPLRKCQKRPCGHPGDTPFGTFTLTGGNVFEYGVKAVYTCNEGYQLLGEINYRECDTDGWTNDIPICEVVKCLPVTAPENGKIVSSAMEPDREYHFGQAVRFVCNSGYKIEGDEEMHCSDDGFWSKEKPKCVEISCKSPDVINGSPISQKIIYKENERFQYKCNMGYEYSERGDAVCTESGWRPLPSCEEKSCDNPYIPNGDYSPLRIKHRTGDEITYQCRNGFYPATRGNTAKCTSTGWIPAPRCTLKPCDYPDIKHGGLYHENMRRPYFPVAVGKYYSYYCDEHFETPSGSYWDHIHCTQDGWSPAVPCLRKCYFPYLENGYNQNYGRKFVQGKSIDVACHPGYALPKAQTTVTCMENGWSPTPRCIRVKTCSKSSIDIENGFISESQYTYALKEKAKYQCKLGYVTADGETSGSITCGKDGWSAQPTCIKSCDIPVFMNARTKNDFTWFKLNDTLDYECHDGYESNTGSTTGSIVCGYNGWSDLPICYERECELPKIDVHLVPDRKKDQYKVGEVLKFSCKPGFTIVGPNSVQCYHFGLSPDLPICKEQVQSCGPPPELLNGNVKEKTKEEYGHSEVVEYYCNPRFLMKGPNKIQCVDGEWTTLPVCIVEESTCGDIPELEHGWAQLSSPPYYYGDSVEFNCSESFTMIGHRSITCIHGVWTQLPQCVAIDKLKKCKSSNLIILEEHLKNKKEFDHNSNIRYRCRGKEGWIHTVCINGRWDPEVNCSMAQIQLCPPPPQIPNSHNMTTTLNYRDGEKVSVLCQENYLIQEGEEITCKDGRWQSIPLCVEKIPCSQPPQIEHGTINSSRSSQESYAHGTKLSYTCEGGFRISEENETTCYMGKWSSPPQCEGLPCKSPPEISHGVVAHMSDSYQYGEEVTYKCFEGFGIDGPAIAKCLGEKWSHPPSCIKTDCLSLPSFENAIPMGEKKDVYKAGEQVTYTCATYYKMDGASNVTCINSRWTGRPTCRDTSCVNPPTVQNAYIVSRQMSKYPSGERVRYQCRSPYEMFGDEEVMCLNGNWTEPPQCKDSTGKCGPPPPIDNGDITSFPLSVYAPASSVEYQCQNLYQLEGNKRITCRNGQWSEPPKCLHPCVISREIMENYNIALRWTAKQKLYSRTGESVEFVCKRGYRLSSRSHTLRTTCWDGKLEYPTCAKR
